Assay results as given in paper PMC11615386, “Phosphorylation-mediated conformational change regulates human SLFN11” (Nature Communications, 2024).
Numbering of substitutions follows the chain as printed. Names may count otherwise.

T1: SLFN11 (Homo sapiens, UniProt Q7Z7L1, S753D)
T1 construct: S753D monomer, 104 kDa, model residues 7-897
T1 sequence (Q7Z7L1 1-901 S753D): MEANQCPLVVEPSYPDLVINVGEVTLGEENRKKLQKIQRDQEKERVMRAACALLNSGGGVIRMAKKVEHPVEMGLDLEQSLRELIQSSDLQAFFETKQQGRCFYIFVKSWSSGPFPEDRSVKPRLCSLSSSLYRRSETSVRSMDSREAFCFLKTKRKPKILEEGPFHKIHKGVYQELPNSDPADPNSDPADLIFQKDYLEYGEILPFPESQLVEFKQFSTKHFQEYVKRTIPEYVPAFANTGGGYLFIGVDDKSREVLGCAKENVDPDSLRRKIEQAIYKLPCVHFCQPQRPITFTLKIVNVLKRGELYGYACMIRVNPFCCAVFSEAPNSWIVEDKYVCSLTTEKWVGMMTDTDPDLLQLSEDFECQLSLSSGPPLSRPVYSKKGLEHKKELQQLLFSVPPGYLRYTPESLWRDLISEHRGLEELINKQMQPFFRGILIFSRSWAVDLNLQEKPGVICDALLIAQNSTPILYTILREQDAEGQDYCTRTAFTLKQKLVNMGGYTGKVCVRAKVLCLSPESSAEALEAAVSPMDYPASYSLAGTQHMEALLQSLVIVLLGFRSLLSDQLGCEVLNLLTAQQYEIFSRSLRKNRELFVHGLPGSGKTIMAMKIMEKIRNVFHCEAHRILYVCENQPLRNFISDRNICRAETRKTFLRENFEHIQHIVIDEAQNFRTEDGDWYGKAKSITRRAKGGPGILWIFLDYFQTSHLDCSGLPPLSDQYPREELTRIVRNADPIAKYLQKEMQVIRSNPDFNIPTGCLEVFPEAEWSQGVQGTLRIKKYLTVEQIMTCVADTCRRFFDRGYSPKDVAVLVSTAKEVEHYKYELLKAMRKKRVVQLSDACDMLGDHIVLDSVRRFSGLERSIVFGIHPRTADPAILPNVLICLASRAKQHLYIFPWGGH

B1: Human Schlafen 11 (SLFN11), wild type (enzyme)
chain: T1 sequence (Q7Z7L1 1-901 S753D) with D753S
notes: Schlafen 11 (SLFN11), human; N-terminal nuclease domain, linker domain and C-terminal helicase domain; also called SLFN11^wt
B2: SLFN11 phosphomimetic mutant T230D (enzyme, human)
chain: T1 sequence (Q7Z7L1 1-901 S753D) with T230D, D753S
notes: Schlafen 11 (SLFN11), human, with the phosphomimetic mutation T230D in the nuclease domain; Made by quick change PCR from the wild-type construct; also called SLFN11^T230D
B3: SLFN11 phosphomimetic mutant S219D (enzyme, human)
chain: T1 sequence (Q7Z7L1 1-901 S753D) with S219D, D753S
notes: Schlafen 11 (SLFN11), human, with the phosphomimetic mutation S219D in the nuclease domain; Made by quick change PCR from the wild-type construct; also called SLFN11^S219D

Legend:
SLFN11 = biological target: T1, SLFN11; experiment: nanoDSF thermal shift (Tycho NT.[…]); format: binding; conditions: 1 mM nucleotide, 300 nM protein, 25 mM Tris pH 7.5, 60 mM NaCl, 2 mM MgCl2
[1] = biological target: the molecule itself; experiment: mass photometry; 50 nM SLFN11 in 25 mM Tris pH 7.5, 2 mM MgCl2, 1 mM DTT with variable concentrations of NaCl (80 mM NaCl in Fig. 4d, e); dimer to monomers

Molecule	inflection temperature shift (SLFN11)	stoichiometry N [1]
Nc1ncnc2c1ncn2[C@@H]1O[C@H](COP(=O)(O)OP(=O)(O)OP(=O)(O)O)[C@@H](O)[C@H]1O [ATP]	ATP and ATPγS caused a large increase in the inflection temperatures of SLFN11^S753D	–
B1	–	2
B2	–	2
B3	–	2
